Test results published in article PMC8956256 (Science Advances, 2022).

Molecular target: the molecule itself
Experiment: cryo-EM structure

B1: Human TMEM175 (transmembrane protein 175) (natural protein)
chain: MSQPRTPEQALDTPGDCPPGRRDEDAGEGIQCSQRMLSFSDALLSIIATVMILPVTHTEISPEQQFDRSVQRLLATRIAVYLMTFLIVTVAWAAHTRLFQVVGKTDDTLALLNLACMMTITFLPYTFSLMVTFPDVPLGIFLFCVCVIAIGVVQALIVGYAFHFPHLLSPQIQRSAHRALYRRHVLGIVLQGPALCFAAAIFSLFFVPLSYLLMVTVILLPYVSKVTGWCRDRLLGHREPSAHPVEVFSFDLHEPLSKERVEAFSDGVYAIVATLLILDICEDNVPDPKDVKERFSGSLVAALSATGPRFLAYFGSFATVGLLWFAHHSLFLHVRKATRAMGLLNTLSLAFVGGLPLAYQQTSAFARQPRDELERVRVSCTIIFLASIFQLAMWTTALLHQAETLQPSVWFGGREHVLMFAKLALYPCASLLAFASTCLLSRFSVGIFHLMQIAVPCAFLLLRLLVGLALATLRVLRGLARPEHPPPAPTGQDDPQSQLLPAPC
In the case of B1, the “stoichiometry N” value is reported as 2.
